Ends that are not written are not given here.
Legend:
[1] = molecular target: T1, HLA-DR molecule encoded by the allele HLA-DRB3*0101 (human); assay: competition ELISA, purified HLA-DR, biotinylated tracer; minus sign = loss
T1 chain 1: not shown
T1 chain 2: not shown

[2] = molecular target: HLA-DR molecule encoded by the allele HLA-DRB1*0301 (human); assay: as above
[3] = molecular target: HLA-DR molecule encoded by the allele HLA-DRB1*1101 (human); assay: as above
[4] = molecular target: HLA-DR molecule encoded by the allele HLA-DRB1*0101 (human); assay: as above
[5] = molecular target: HLA-DR molecule encoded by the allele HLA-DRB1*0401 (human); assay: as above
[6] = molecular target: T2, HLA-DR molecule encoded by the allele HLA-DRB1*1301 (human); assay: as above
T2 chain 1: not shown
T2 chain 2: not shown

[7] = molecular target: T3, HLA-DR molecule encoded by the allele HLA-DRB1*0701 (human); assay: as above
T3 chain 1: not shown
T3 chain 2: not shown

[8] = molecular target: HLA-DR molecule encoded by the allele HLA-DRB1*1501 (human)
[9] = molecular target: HLA-DR molecule encoded by the allele HLA-DRB1*0301 (human); assay: competition ELISA, nonbiotinylated tracer peptide against its biotinylated form
[10] = molecular target: T1, HLA-DR molecule encoded by the allele …; assay: competition ELISA, nonbiotinylated peptide against the biotinylated tracer of that DR molecule
[11] = molecular target: T2, HLA-DR molecule encoded by the allele …; assay: as above
[12] = molecular target: T2, HLA-DR molecule encoded by the allele …; assay: competition ELISA, nonbiotinylated tracer peptide against its biotinylated form

With KMYFTLIDTKAYK (modifications not checked) [peptide N89T, analog of the peptide P85-97A] the relative activity (ratio of IC50 to P85-97A) [1] was 2 fold, the relative activity (ratio of IC50 to P85-97A) [2] was 7 fold and the relative activity (ratio of IC50 to P85-97A) [3] was 2 fold. The relative activity (ratio of IC50 to P85-97A) [4] was 1 fold, the relative activity (ratio of IC50 to P85-97A) [5] was 2 fold and the relative activity (ratio of IC50 to P85-97A) [6] was 1 fold. For the same binder, the relative activity (ratio of IC50 to P85-97A) [7] was 3 fold.

Binder YFVAKMYFNLIDT (modifications not checked) [API m1 peptide with glycine 84 substituted by an alanine] has a factor of increase in affinity [8] of 5 fold.

For AKTIAYDEEARGLE (not fully specified) [MT 2-16 (nonbiotinylated peptide)], the IC50 [9] was 100 nM.

Binder TERVRLVTRHIYNREE (not fully specified) [B1 21-36 (nonbiotinylated peptide)] has an IC50 [10] of 35000 nM, an IC50 [11] of 275 nM and an IC50 [12] of 320 nM.
